In US20120328616A1 (Amgen, published 2012):
Numbering of substitutions follows the chain as printed. Each block holds one binder with its values, some of them ahead of it.

Tests used:
[1] = target: T1, cynomologous monkey FGFR1c/cynomologous monkey β-Klotho (co-transfected) (cynomologous monkey); experiment: flow cytometry, transfected HEK293T; mock-transfected cells 705
T1 construct: whole, on cells; also called Cyno FGFR1c/Cyno β-Klotho
Procedure: (§1) This solution was then added dropwise to 10 million HEK293T cells in 10 ml of media. 24 hours following transfection, the cells were washed and 50,000 cells were stained with each primary antibody, 50 μl of unpurified hybridoma supernatant was diluted 1:2 and used for staining cells. After a one hour incubation at 4° c., the cells were washed and an anti-Human Fc-specific secondary was added. Stained cells were then analyzed on a flow cytometer.

[2] = target: T2, human FGFR1c/human β-Klotho complex (FGF21 receptor) (human, UniProt P11362 22-822); experiment: as above
T2 construct: Both full-length proteins co-expressed on cells (HEK293T, CHO, L6); also called HuFGFR1c/Hu β-Klotho; huFGF21R
Procedure: as §1

human FGFR1c [3] = target: T3, human FGFR1c (human, UniProt P11362 22-822); experiment: as above
T3 construct: Full length (GenBank NP-075598), expressed on transfected 293T cells; also called huFGFR1c; FGFR1c alone
Procedure: as §1

[4] = target: T1, cynomologous monkey FGFR1c/cynomologous …; experiment: flow cytometry, transfected HEK293T; mock-transfected cells 632
Procedure: as §1

[5] = target: T2, human FGFR1c/human β-Klotho complex …; experiment: as above
Procedure: as §1

human FGFR1c [6] = target: T3, human FGFR1c; experiment: as above
Procedure: as §1

GeoMean [1]: 24600
GeoMean [2]: 18800
GeoMean (human FGFR1c [3]): 719
B1: 65C3.1 (antibody, V domains shown)
VH: QVQLQESGPGLVKPSETLSLTCTVSGGSISSYYWSWIRQPPGKGLEWIGYIYYTGSTNYNPSLKSRVTISVDTSKNQFSLKLSSVTAADTAVYYCAREYYYGSGSYYPWGQGTLVTVSS
VL: EMVMTQSPATLSVSPGERATLSCRASQSVSSQLAWYQEKPGRAPRLLIYGASNRAIDIPARLSGSGSGTEFTLTISSLQSEDFAVYYCQQYNNWPWTFGQGTKVEFKR

GeoMean [4]: 15800
GeoMean [5]: 13900
GeoMean (human FGFR1c [6]): 757
B2: 67F5.1 (antibody, V domains shown)
VH: B1 VH with Q5K, T54S, S56N
VL: EIVMTQSPATLSVSPGERVTLSCRASQSVSSNLAWYQQKPGQAPRLLIHGSSNRAIGIPARFSGSGSGTEFTLTISSLQSADFAVYNCQQYEIWPWTFGQGTKVEIKR
